# Source: patent US7888025B2, “Intestinal folate transporter method” (Albert Einstein College of Medicine of Yeshiva University, priority 2007, dated 2011)
# Where two headings read alike, the source gives them in different places.
# T1: reduced folate carrier (SLC19A1) (Homo sapiens, UniProt P41440)
# T1 sequence (P41440 1-591): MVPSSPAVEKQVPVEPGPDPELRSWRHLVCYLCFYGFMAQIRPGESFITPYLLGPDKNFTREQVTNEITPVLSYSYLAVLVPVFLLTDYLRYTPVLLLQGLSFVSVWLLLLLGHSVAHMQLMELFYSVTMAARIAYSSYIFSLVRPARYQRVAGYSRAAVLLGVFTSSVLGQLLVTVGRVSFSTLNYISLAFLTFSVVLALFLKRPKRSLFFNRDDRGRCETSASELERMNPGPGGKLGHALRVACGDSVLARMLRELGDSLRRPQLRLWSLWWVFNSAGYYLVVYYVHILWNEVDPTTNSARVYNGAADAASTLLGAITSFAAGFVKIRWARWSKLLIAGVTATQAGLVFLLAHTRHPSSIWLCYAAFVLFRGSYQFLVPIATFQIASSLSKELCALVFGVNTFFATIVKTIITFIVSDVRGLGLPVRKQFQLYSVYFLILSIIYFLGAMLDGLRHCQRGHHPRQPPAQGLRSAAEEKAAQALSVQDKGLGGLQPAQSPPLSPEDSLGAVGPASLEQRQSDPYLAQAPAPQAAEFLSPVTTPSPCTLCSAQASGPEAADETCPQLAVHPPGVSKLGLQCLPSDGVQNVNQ
# T2: G21 (PCFT) (Homo sapiens, UniProt Q96NT5)
# T2 construct: expressed in transfected cells; host or cells: Xenopus laevis oocytes injected with capped G21 cRNA (pSPT64, SP6)
# T2 sequence (Q96NT5 1-459): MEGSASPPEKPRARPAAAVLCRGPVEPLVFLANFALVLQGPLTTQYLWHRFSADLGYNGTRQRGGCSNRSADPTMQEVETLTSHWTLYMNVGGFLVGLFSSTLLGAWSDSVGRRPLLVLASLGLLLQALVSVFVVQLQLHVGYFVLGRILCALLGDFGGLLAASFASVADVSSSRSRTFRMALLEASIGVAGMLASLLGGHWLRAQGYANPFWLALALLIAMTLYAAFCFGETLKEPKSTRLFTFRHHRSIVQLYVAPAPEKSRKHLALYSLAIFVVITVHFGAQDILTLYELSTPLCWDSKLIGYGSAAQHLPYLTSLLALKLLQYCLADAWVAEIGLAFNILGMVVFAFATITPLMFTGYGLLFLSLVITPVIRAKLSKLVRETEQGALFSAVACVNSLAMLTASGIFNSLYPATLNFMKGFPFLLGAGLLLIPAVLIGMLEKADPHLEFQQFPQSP
# T3: low-pH folate transporter (Homo sapiens, UniProt Q96NT5)
# T3 construct: host or cells: HeLa and other cells
# T3 sequence (Q96NT5 1-459): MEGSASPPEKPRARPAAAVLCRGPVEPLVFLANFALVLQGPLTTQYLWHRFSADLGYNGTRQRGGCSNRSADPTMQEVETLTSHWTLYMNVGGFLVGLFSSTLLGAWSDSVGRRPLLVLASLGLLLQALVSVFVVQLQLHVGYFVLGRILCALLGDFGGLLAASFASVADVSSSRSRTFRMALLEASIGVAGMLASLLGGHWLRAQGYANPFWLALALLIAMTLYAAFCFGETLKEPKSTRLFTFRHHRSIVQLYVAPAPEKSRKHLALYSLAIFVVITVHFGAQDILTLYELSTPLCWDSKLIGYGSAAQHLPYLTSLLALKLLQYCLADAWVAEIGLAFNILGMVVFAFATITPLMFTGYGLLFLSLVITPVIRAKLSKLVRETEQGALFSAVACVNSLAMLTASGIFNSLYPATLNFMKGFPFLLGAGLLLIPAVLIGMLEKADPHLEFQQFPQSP
# Experiments:
# [1] = target: rat jejunum brush border membranes; conditions: read-out: Ki, competitive inhibition of folic acid uptake; cited from earlier work
# [2] = target: T1, reduced folate carrier (SLC19A1); conditions: cited from earlier work
# G21 (PCFT) = target: T2, G21 (PCFT); test: Inhibition of [3H]folic acid uptake into G21 cRNA-injected Xenopus oocytes; assay type: cell-based; conditions: 20 μM nonlabeled compound, pH 5.5, 30 min
# Protocol: Uptake studies in Xenopus oocytes. […] Radiotracer uptake was determined 3 or 4 days later. […] Uptake was halted by the addition of ice-cold MBS (pH 7.5). Oocytes were washed 10 times thereafter, and solubilized with 10% SDS for measurement of radioactivity. To collapse the pH gradient across the oocyte membrane, seven to 10 oocytes were incubated in MBS (pH 5.5) containing 0, 10, 20, 40, 60 μM FCCP for 20 min, and uptake of transport substrates assessed at pH 5.5.
# [3] = target: T3, low-pH folate transporter; conditions: cited from earlier work
# PCFT = test: [3H](6S)5-methylTHF uptake in HeLa cells transiently transfected with mutated PCFT cDNA; assay type: cell-based, human; conditions: 0.5 μM, pH 5.5, 37° C., 2 min, transiently transfected HeLa cells
# From the text: Analysis of G21 in a family with hereditary folate malabsorption. Members of a family with hereditary folate malabsorption were studied according to a protocol and Informed Consent in the subjects' native language approved by the Albert Einstein College of Medicine IRB (CCI#2006-279). Whole blood was used for isolation of genomic DNA by a Genomic DNA Purification Kit (Gentra Systems, Minneapolis, Minn.) and to generate EBV-transformed human B-lymphoblastoid cell lines in the Einstein Human Genetics Cell Culture Core. Each G21 exon with flanking regions was amplified using Taq DNA polymerase, Q-solution (Qiagen, Valencia, Calif.) and primers listed in Table 4. G21 or RFC cDNA were amplified from lymphoblastoid cells by RT-PCR. PCR products were gel-purified and sequenced in an ABI 3730 DNA Analyzer (Applied Biosystems). The mutated region was verified by sequencing both DNA strands. An expression vector of the mutated G21 in which exon 3 was skipped (GenBank accession number: BC010691) was purchased from Open Biosystems and, along with pcDNA3.1(+)G21 (wild type), was used for an assay of transport function. Western blot analysis on whole cell lysate and cellular localization was performed as described above.
# Site-directed mutagenesis. PCFT cDNA was cloned in pCDNA 3.1 (+) and mutations in the coding region were introduced by site-directed mutagenesis using PfuTurbo® DNA polymerase (Stratagene, La Jolla, Calif.) as described previously (Zhao et al., 2000). The entire PCFT coding region in the plasmid was sequenced to verify the presence of the mutation.
# Transient transfections and assessment of 5-methylTHF transport. Plasmid concentrations were determined by UV absorption and verified by agarose gel analysis. HeLa cells were seeded and transiently transfected in 20 ml glass scintillation vials (Research Products International Corp., Mt. Prospect, Ill.) and after two days, [^3H]5-methylTHF uptake was assessed (Qiu et al., 2006). EBV-transformed B-lymphoblastoid cells, generated from blood (P6 and P7), were washed twice with, and resuspended in, unbuffered saline (160 mM NaCl, 5 mM KCl, 2 mM MgCl2, 5 mM glucose). Uptake was initiated by injection of the cell suspension into MES-buffered saline (pH 5.5) containing 0.5 μM [^3H]5-methylTHF. Surface binding was assessed by measuring [^3H]5-methylTHF associated with cells at 0° C. and the bound component was subtracted from total uptake.
# [4] = substrate: Nc1nc2ncc(CNc3ccc(C(=O)N[C@@H](CCC(=O)O)C(=O)O)cc3)nc2c(=O)[nH]1; test: Two-electrode voltage-clamp electrophysiology in G21 cRNA-injected Xenopus oocytes; assay type: cell-based, human; conditions: 17.0 °C
# Protocol: Electrophysiological analyses in Xenopus oocytes. Defolliculated oocytes were injected with 50 nl of water (control) or G21 cRNA (50 ng), and kept at 17° C. in horse serum medium (in mM, 82.5 NaCl, 2.5 KCl, 1 MgCl2, 2.3 CaCl2, 5 HEPES, 5% horse serum, pH 7.5). Electrophysiological recordings were conducted 3-7 days after cRNA injection in buffer (in mM, 90 NaCl, 1 KCl, 1 MgCl2, 1.8 CaCl2, 5 TRIS, 5 MES) as described previously (Jansen and Akabas, 2006). Oocyte holding potential was −80 mV for Km determination. For current-voltage (I-V) relationships, from a −60 mV holding potential step changes in membrane potential were applied for 2 s in 10 mV increments between −100 and 30 mV in the absence and presence of substrate.
# [5] = substrate: Nc1nc2ncc(CNc3ccc(C(=O)N[C@@H](CCC(=O)O)C(=O)O)cc3)nc2c(=O)[nH]1; test: Uptake of tritiated folates in G21 cRNA-injected Xenopus oocytes; assay type: cell-based, human
# Protocol: Uptake studies in Xenopus oocytes. Defolliculated Xenopus laevis oocytes were prepared as described (Jansen and Akabas, 2006) and injected with 50 nl of water or G21 cRNA (30 ng). Radiotracer uptake was determined 3 or 4 days later. Seven to 10 oocytes were incubated in 500 μl of Modified Barth's Solution (MBS, in mM, 88 NaCl, 2.4 NaHCO3, 2.5 Na pyruvate, 1 KCl, 0.82 MgSO4, 0.41 CaCl2, 0.3 Ca(NO3)2, 15 MES or HEPES) and uptake of tritiated folate substrates assessed at room temperature. Uptake was halted by the addition of ice-cold MBS (pH 7.5). Oocytes were washed 10 times thereafter, and solubilized with 10% SDS for measurement of radioactivity. To collapse the pH gradient across the oocyte membrane, seven to 10 oocytes were incubated in MBS (pH 5.5) containing 0, 10, 20, 40, 60 μM FCCP for 20 min, and uptake of transport substrates assessed at pH 5.5.
# [6] = substrate: CN(Cc1cnc2nc(N)nc(N)c2n1)c1ccc(C(=O)N[C@@H](CCC(=O)O)C(=O)O)cc1; test: cells, lysate or membranes
# [7] = other: extracellular pH 5.5, pH 5.5
# [8] = other: extracellular pH 6.0, pH 6.0
# [9] = other: extracellular pH 6.5, pH 6.5
# [10] = other: extracellular pH 7.0, pH 7.0
# [11] = other: extracellular pH 7.5, pH 7.5
molecule,measurement,setting,value
CN1c2c(nc(N)[nH]c2=O)NCC1CNc1ccc(C(=O)N[C@@H](CCC(=O)O)C(=O)O)cc1 (mixture of isomers) [racemic 5-MTHF],Ki,[1],1.4 µM
Nc1nc(N)c2nc(CNc3ccc(C(=O)N[C@@H](CCCNC(=O)c4ccccc4C(=O)O)C(=O)O)cc3)cnc2n1 [PT523],Ki,[2],~0.7 µM
same,inhibitory effect on uptake of 2 μM [3H]folic acid,G21 (PCFT),did not inhibit
same,Ki,[3]; HeLa and other cells,> 50 µM
same,Ki,"[3]; pH 5.5, intestinal and other human cells",> 50 µM
"mutated G21 carrier: exon 3-deleted G21 (PCFT) protein, in-frame deletion of 28 amino acids (protein, listed as Homo sapiens) MEGSASPPEKPRARPAAAVLCRGPVEPLVFLANFALVLQGPLTTQYLWHRFSADLGYNGTRQRGGCSNRSADPTMQEVETLTSHWTLYMNVGGFLVGLFSSTLLGAWSDSVGRRPLLVLASLGLLLQALVSVFVVQLQLHVGYFVLGRILCALLGDFGGLLAASFASVADVSSSRSRTFRMALLEASIGVAGMLASLLGGHWLRAQGYANPFWLALALLIAMTLYAAFCFGETLKEPKSTRLFTFRHHRSIVQLYVAPAPEKSRKHLALYSLAIFVVITVHFGAQDILTLYELSTPLCWDSKLIGYGSAAQHLPYLTSLLALKLLQYCLADAWVAEIGLAFNILGMVVFAFATITPLMFTGALFSAVACVNSLAMLTASGIFNSLYPATLNFMKGFPFLLGAGLLLIPAVLIGMLEKADPHLEFQQFPQSP",[3H](6S)5-methylTHF uptake (transport function),PCFT,lacked transport function
"G21 (PCFT) (Homo sapiens) (protein, expressed in transfected cells; host or cells: Xenopus laevis oocytes injected with capped G21 cRNA (pSPT64, SP6)) MEGSASPPEKPRARPAAAVLCRGPVEPLVFLANFALVLQGPLTTQYLWHRFSADLGYNGTRQRGGCSNRSADPTMQEVETLTSHWTLYMNVGGFLVGLFSSTLLGAWSDSVGRRPLLVLASLGLLLQALVSVFVVQLQLHVGYFVLGRILCALLGDFGGLLAASFASVADVSSSRSRTFRMALLEASIGVAGMLASLLGGHWLRAQGYANPFWLALALLIAMTLYAAFCFGETLKEPKSTRLFTFRHHRSIVQLYVAPAPEKSRKHLALYSLAIFVVITVHFGAQDILTLYELSTPLCWDSKLIGYGSAAQHLPYLTSLLALKLLQYCLADAWVAEIGLAFNILGMVVFAFATITPLMFTGYGLLFLSLVITPVIRAKLSKLVRETEQGALFSAVACVNSLAMLTASGIFNSLYPATLNFMKGFPFLLGAGLLLIPAVLIGMLEKADPHLEFQQFPQSP",Km,"[4]; other: pH 5.5, holding potential −80 mV, pH 5.5",0.83 ± 0.05 µM
same,Km,"[4]; other: pH 6.5, holding potential −80 mV, pH 6.5",2.99 ± 0.09 µM
same,Km,[5]; [7],1.3 ± 0.1 µM
same,Km,[5]; [8],1.5 ± 0.1 (n = 2) μM
same,Km,[5]; [9],2.7 ± 0.2 (n = 3) μM
same,Km,[5]; [10],6.0 ± 2.6 (n = 2) μM
same,Km,[5]; [11],56.2 ± 5.6 µM
same,Km,[6]; [7],3.4 ± 0.8 (n = 3) μM
same,Km,[6]; [8],3.4 ± 0.5 (n = 3) μM
same,Km,[6]; [9],7.3 ± 0.6 (n = 3) μM
same,Km,[6]; [10],16.3 ± 2.8 (n = 4) μM
same,Km,[6]; [11],130.7 ± 11.6 (n = 3) μM
same,Km,"[6]; other: pH 5.5, holding potential −80 mV, pH 5.5, 17.0 °C",2.01 ± 0.16 µM
same,Km,"[6]; other: pH 6.5, holding potential −80 mV, pH 6.5, 17.0 °C",8.07 ± 0.60 µM
"S318R: human PCFT mutant protein (protein, UniProt Q96NT5 1-459, looked up, variant S318R) Proton-coupled folate …: MEGSASPPEKPRARPAAAVLCRGPVEPLVFLANFALVLQGPLTTQYLWHRFSADLGYNGTRQRGGCSNRSADPTMQEVETLTSHWTLYMNVGGFLVGLFSSTLLGAWSDSVGRRPLLVLASLGLLLQALVSVFVVQLQLHVGYFVLGRILCALLGDFGGLLAASFASVADVSSSRSRTFRMALLEASIGVAGMLASLLGGHWLRAQGYANPFWLALALLIAMTLYAAFCFGETLKEPKSTRLFTFRHHRSIVQLYVAPAPEKSRKHLALYSLAIFVVITVHFGAQDILTLYELSTPLCWDSKLIGYGSAAQHLPYLTRLLALKLLQYCLADAWVAEIGLAFNILGMVVFAFATITPLMFTGYGLLFLSLVITPVIRAKLSKLVRETEQGALFSAVACVNSLAMLTASGIFNSLYPATLNFMKGFPFLLGAGLLLIPAVLIGMLEKADPHLEFQQFPQSP",[3H](6S)5-methylTHF uptake (transport function),PCFT,essentially no uptake
